In publication PMC7036032:

Molecular target: cleavage stimulation factor (CstF): CstF77-CstF50-CstF64(1-195) (human) (UniProt Q12996)
Assay: SEC

- stoichiometry N: 1
Substance: mammalian polyadenylation specificity factor (mPSF): CPSF160-WDR33(1-572)-CPSF30-Fip1(1-243), Q10570 1-1443; Q9C0J8 1-572; O95639-2 1-244; Q6UN15 1-243
